Reference: paper PMC9482650, “Quantitative fragmentomics allow affinity mapping of interactomes” (Nature Communications, 2022)

T1: SNTG1, Q9NSN8
T1 sequence (Q9NSN8 52-150, limits assumed, looked up): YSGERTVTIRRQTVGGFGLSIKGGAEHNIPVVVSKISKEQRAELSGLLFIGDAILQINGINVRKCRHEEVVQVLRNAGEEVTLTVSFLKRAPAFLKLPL

T2: LIN7C, Q9NUP9
T2 sequence (Q9NUP9 88-185, limits assumed, looked up): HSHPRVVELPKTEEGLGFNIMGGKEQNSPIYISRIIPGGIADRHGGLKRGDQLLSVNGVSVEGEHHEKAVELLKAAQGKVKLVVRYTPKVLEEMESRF

T3: DFNB31_3, Q9P202
T3 sequence (Q9P202 811-907, limits assumed, looked up): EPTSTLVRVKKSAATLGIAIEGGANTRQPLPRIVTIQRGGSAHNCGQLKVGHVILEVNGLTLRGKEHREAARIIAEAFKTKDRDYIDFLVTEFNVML

T4: APBA3_1, O96018
T4 sequence (O96018 389-490, limits assumed, looked up): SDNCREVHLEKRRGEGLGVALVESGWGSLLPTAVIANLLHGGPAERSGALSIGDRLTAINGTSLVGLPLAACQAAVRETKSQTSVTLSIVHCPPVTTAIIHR

T5: MPDZ_10, O75970
T5 sequence (O75970 1624-1722, limits assumed, looked up): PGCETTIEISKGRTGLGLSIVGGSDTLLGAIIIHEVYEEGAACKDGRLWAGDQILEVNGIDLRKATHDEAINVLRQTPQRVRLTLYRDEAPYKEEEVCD

T6: PARD3B_1, Q8TEW8
T6 sequence (Q8TEW8 196-299, limits assumed, looked up): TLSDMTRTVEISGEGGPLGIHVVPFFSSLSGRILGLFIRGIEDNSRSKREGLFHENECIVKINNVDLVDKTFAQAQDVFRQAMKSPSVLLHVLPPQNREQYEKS

T7: SNTA1, Q13424
T7 sequence (Q13424 82-180, limits assumed, looked up): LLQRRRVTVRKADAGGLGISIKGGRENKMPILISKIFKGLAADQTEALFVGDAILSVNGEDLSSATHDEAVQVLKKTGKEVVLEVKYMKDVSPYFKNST

T8: NHERF3_1, Q5T2W1
T8 sequence (Q5T2W1 4-100, limits assumed, looked up): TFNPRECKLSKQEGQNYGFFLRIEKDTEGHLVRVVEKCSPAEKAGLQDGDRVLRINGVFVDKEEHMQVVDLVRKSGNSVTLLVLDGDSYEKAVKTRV

T9: MPDZ_12, O75970
T9 sequence (O75970 1857-1958, limits assumed, looked up): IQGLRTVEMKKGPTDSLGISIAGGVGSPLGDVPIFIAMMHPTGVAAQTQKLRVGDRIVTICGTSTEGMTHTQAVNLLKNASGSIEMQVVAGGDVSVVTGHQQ

T10: RAPGEF6, Q8TEU7
T10 sequence (Q8TEU7 525-625, limits assumed, looked up): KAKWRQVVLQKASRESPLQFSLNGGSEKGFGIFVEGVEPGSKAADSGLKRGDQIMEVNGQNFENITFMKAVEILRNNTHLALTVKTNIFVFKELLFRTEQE


Key:
Assay in all cases: holdup assay
Parameters in all cases: key: below the threshold = too weak to quantify, mostly under pKd 3.1 to 4
Conditions in all cases: plain residues with an end cap or a label only (N-terminal biotin on a linker: ado-ado)
[1] = molecular target: T1, SNTG1, Q9NSN8
[2] = molecular target: MAGI2_2, Q86UL8
MAGI2_2, Q86UL8, sequence (Q86UL8 410-522): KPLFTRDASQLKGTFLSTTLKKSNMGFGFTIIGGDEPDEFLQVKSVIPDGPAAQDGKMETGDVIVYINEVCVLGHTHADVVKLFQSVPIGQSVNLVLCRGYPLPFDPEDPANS

[3] = molecular target: DLG2_2, Q15700
[4] = molecular target: GRID2IP_1, A4D2P6
GRID2IP_1, A4D2P6, sequence (A4D2P6 1-87): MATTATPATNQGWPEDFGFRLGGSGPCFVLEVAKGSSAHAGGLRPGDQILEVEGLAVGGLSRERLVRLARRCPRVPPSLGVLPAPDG

[5] = molecular target: T2, LIN7C, Q9NUP9
[6] = molecular target: GRIP2_6, Q9C0E4
GRIP2_6, Q9C0E4, sequence (Q9C0E4 648-740): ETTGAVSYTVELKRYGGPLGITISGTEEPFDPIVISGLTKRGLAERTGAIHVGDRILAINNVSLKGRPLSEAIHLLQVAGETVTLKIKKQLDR

[7] = molecular target: CASK, O14936
CASK, O14936, sequence (O14936 487-570): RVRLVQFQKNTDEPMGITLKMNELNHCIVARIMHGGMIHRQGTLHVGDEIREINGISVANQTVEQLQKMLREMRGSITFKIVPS

[8] = molecular target: T3, DFNB31_3, Q9P202
[9] = molecular target: SCRIB_1, Q14160
SCRIB_1, Q14160, sequence (Q14160 718-814): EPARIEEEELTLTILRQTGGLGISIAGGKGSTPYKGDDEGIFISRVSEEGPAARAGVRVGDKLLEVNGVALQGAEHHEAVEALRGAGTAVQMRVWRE

[10] = molecular target: FRMPD2_2, Q68DX3
FRMPD2_2, Q68DX3, sequence (Q68DX3 944-1038): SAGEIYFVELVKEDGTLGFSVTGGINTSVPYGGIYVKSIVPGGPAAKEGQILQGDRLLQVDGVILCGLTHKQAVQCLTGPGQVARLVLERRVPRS

[11] = molecular target: NHERF2_2, Q15599
NHERF2_2, Q15599, sequence (Q15599 142-238): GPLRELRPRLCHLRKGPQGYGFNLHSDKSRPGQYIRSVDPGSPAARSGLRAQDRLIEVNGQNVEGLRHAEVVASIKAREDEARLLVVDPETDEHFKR

[12] = molecular target: GOPC, Q9HD26
[13] = molecular target: FRMPD4, Q14CM0
FRMPD4, Q14CM0, sequence (Q14CM0 67-160): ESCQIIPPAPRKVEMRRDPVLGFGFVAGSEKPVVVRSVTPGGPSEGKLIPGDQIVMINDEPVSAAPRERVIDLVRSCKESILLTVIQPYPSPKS

[14] = molecular target: LDB3, O75112
LDB3, O75112, sequence (O75112 1-94): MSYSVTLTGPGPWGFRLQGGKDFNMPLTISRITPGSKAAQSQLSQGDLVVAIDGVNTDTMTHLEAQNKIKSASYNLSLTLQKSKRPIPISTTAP

[15] = molecular target: MAGI2_3, Q86UL8
MAGI2_3, Q86UL8, sequence (Q86UL8 600-682): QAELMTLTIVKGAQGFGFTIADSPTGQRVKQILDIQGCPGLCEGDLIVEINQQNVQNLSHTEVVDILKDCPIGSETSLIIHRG

[16] = molecular target: IL16_4, Q14005
IL16_4, Q14005, sequence (Q14005 1229-1329): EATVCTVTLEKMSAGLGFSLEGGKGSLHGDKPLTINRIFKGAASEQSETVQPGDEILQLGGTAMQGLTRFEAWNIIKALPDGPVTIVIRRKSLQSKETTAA

[17] = molecular target: T4, APBA3_1, O96018
[18] = molecular target: TJP1_3, Q07157
TJP1_3, Q07157, sequence (Q07157 416-512): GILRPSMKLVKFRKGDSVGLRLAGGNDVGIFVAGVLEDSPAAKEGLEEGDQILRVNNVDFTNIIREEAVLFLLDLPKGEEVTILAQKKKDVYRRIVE

[19] = molecular target: T5, MPDZ_10, O75970
[20] = molecular target: DLG5_1, Q8TDM6
DLG5_1, Q8TDM6, sequence (Q8TDM6 617-713): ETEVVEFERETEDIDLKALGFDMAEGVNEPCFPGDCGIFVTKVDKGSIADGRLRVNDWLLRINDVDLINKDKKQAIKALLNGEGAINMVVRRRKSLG

[21] = molecular target: GIPC2, Q8TF65
GIPC2, Q8TF65, sequence (Q8TF65 112-203): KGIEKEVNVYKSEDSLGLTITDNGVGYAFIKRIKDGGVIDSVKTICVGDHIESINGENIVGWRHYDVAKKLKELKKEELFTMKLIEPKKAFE

[22] = molecular target: T6, PARD3B_1, Q8TEW8
[23] = molecular target: T7, SNTA1, Q13424
[24] = molecular target: T8, NHERF3_1, Q5T2W1
[25] = molecular target: T9, MPDZ_12, O75970
[26] = molecular target: DLG2_3, Q15700
[27] = molecular target: T10, RAPGEF6, Q8TEU7
[28] = molecular target: Inadl_1, Q8NI35
Inadl_1, Q8NI35, sequence (Q8NI35 113-229): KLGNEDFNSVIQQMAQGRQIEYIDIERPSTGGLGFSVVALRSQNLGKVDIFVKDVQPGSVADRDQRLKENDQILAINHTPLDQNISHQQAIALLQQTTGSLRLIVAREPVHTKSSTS

| pKd [1] | pKd [2] | pKd [3] | pKd [4] | pKd [5] | pKd [6] | pKd [7] | pKd [8] | pKd [9] | pKd [10] | pKd [11] | pKd [12] | pKd [13] | pKd [14] | pKd [15] | pKd [16] | pKd [17] | pKd [18] | pKd [19] | pKd [20] | Binder | other results |
| --- | --- | --- | --- | --- | --- | --- | --- | --- | --- | --- | --- | --- | --- | --- | --- | --- | --- | --- | --- | --- | --- |
| below the threshold | below the threshold | below the threshold | below the threshold | below the threshold | below the threshold | below the threshold | 3.99 | 3.5 | below the threshold | 4.42 | below the threshold | below the threshold | 3.58 | below the threshold | below the threshold | below the threshold | below the threshold | below the threshold | below the threshold | TISFTQTSQF [SLC1A1, P43005] | pKd [21]: below the threshold; pKd [22]: 4.24; pKd [23]: below the threshold; pKd [24]: 4.73; pKd [25]: below the threshold; pKd [26]: 3.71; pKd [27]: below the threshold; pKd [28]: below the threshold |
| below the threshold | below the threshold | below the threshold | below the threshold | below the threshold | below the threshold | below the threshold | 3.93 | below the threshold | below the threshold | below the threshold | below the threshold | below the threshold | below the threshold | below the threshold | 3.5 | below the threshold | below the threshold | 3.68 | below the threshold | NNNVVKVDSV [MTNR1A, P48039] | pKd [21]: below the threshold; pKd [22]: below the threshold; pKd [23]: below the threshold; pKd [24]: below the threshold; pKd [25]: below the threshold; pKd [26]: 3.54; pKd [27]: below the threshold; pKd [28]: below the threshold |
| below the threshold | 4.82 | 4.28 | below the threshold | 4 | below the threshold | below the threshold | 4 | 3.88 | below the threshold | below the threshold | below the threshold | below the threshold | below the threshold | 3.67 | below the threshold | below the threshold | below the threshold | below the threshold | below the threshold | PSHPRLQTHV [KIRREL2, Q6UWL6] | pKd [21]: below the threshold; pKd [22]: below the threshold; pKd [23]: below the threshold; pKd [24]: 4.57; pKd [25]: below the threshold; pKd [26]: 4.26; pKd [27]: below the threshold; pKd [28]: below the threshold |

Further lines, the binder ahead of its results:

| Binder | pKd [1] | pKd [2] | pKd [3] | pKd [4] | pKd [5] | pKd [6] | pKd [7] | pKd [8] | pKd [9] | pKd [10] | pKd [11] | pKd [12] | pKd [13] | pKd [14] | pKd [15] | pKd [16] | pKd [17] | pKd [18] | pKd [19] | pKd [20] | other results |
| --- | --- | --- | --- | --- | --- | --- | --- | --- | --- | --- | --- | --- | --- | --- | --- | --- | --- | --- | --- | --- | --- |
| NVYGIESVKI [GRIA2, P42262] | 3.65 | below the threshold | 3.5 | below the threshold | below the threshold | 3.64 | below the threshold | below the threshold | below the threshold | below the threshold | 3.71 | below the threshold | below the threshold | below the threshold | below the threshold | below the threshold | below the threshold | 3.62 | 3.57 | 3.59 | pKd [21]: below the threshold; pKd [22]: 5.1; pKd [23]: below the threshold; pKd [24]: below the threshold; pKd [25]: 3.61; pKd [26]: 3.81; pKd [27]: below the threshold; pKd [28]: below the threshold |
| GIKKITSTAL [RPS6KA3, P51812] | 3.68 | 4.16 | 3.88 | below the threshold | below the threshold | 3.88 | below the threshold | 4.23 | 4.94 | 3.5 | 4.76 | 4.5 | 4.26 | below the threshold | 3.51 | 3.78 | below the threshold | below the threshold | 3.59 | below the threshold | pKd [21]: below the threshold; pKd [22]: 4.05; pKd [23]: 3.94; pKd [24]: 5.64; pKd [25]: below the threshold; pKd [26]: 3.63; pKd [27]: below the threshold; pKd [28]: below the threshold |
